Holding throughout (assay): split reporter
For experiment [1], the target named is ADGRL4-CTF1 S414A (human) (UniProt Q9HBW9).
The target of experiment [2] is ADGRL4-CTF1 I411A (human) (UniProt Q9HBW9).
Experiment [3] has as its target ADGRL4-CTF1 H408A (human) (UniProt Q9HBW9).
Experiment [4] deals with ADGRL4-CTF1 F409A (human) (UniProt Q9HBW9).
For experiment [5], the target named is ADGRL4-CTF1 L412A (human) (UniProt Q9HBW9).

These results are taken from doi:10.1101/2025.10.03.680274.

With “LgBiT-mini-Gq (mini-Gs/q version 70) (domain or fragment)”, the reduction of Gq coupling relative to wild-type CTF1 in experiment [1], in experiment [2], in experiment [3] and in experiment [5] was more than 50% in each case. This substance yielded a Gq coupling as percent of wild-type CTF1 in experiment [4] of 12%.
